What all share (experiment): SPOT array
Experiment [1] concerns the target Sho1 SH3 (SHO1_YEAST), P40073.
For experiment [2], the target named is T1, Rvs167 SH3 (RV167_YEAST), P39743.
T1 chain: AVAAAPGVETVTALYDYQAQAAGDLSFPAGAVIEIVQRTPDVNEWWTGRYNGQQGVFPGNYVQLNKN

For experiment [3], the target named is T2, Boi2 SH3 (BOI2_YEAST), P39969.
T2 chain: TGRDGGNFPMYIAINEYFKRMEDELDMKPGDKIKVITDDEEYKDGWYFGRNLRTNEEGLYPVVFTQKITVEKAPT

Experiment [4] concerns the target T3, Yfr024 SH3 (LSB3_YEAST), P43603.
T3 chain: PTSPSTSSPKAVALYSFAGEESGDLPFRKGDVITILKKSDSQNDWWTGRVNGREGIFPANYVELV

In experiment [5] the target is T4, Yhr016c SH3 (YSC84_YEAST), P32793.
T4 chain: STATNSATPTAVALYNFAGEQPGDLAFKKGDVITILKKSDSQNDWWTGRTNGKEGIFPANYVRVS

In experiment [6] the target is T5, Myo5 SH3 (MYO5_YEAST), Q04439.
T5 chain: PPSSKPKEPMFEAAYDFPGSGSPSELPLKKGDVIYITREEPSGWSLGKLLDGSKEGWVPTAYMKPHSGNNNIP

In experiment [7] the target is T6, Boi1 SH3 (BOI1_YEAST), P38041.
T6 chain: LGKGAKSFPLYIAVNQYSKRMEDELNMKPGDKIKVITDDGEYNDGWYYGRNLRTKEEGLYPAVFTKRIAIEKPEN

Sequence of Sho1 SH3 (SHO1_YEAST), P40073 (P40073 295-366): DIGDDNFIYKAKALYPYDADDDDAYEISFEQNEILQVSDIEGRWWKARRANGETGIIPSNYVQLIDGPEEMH

With DQLNRLLPNLPEEE [YJR090C 138-151], the normalised SPOT signal, Boehringer light units (BLU); mean over the file's lines of this peptide is 12000 in experiment [1]; 682 in experiment [2]; 18.1 in experiment [3]; 12300 in experiment [4]; 23200 in experiment [5]; 47.5 in experiment [6]. In addition, the normalised SPOT signal, Boehringer light units (BLU); mean over the file's lines of this peptide in experiment [7] was 106.

In the case of DSVLRQKPDKPRPI [YMR032W 380-393], the normalised SPOT signal, Boehringer light units (BLU); mean over the file's lines of this peptide in experiment [1] amounted to 26.5; in experiment [2] it was 43.8; in experiment [3], 10.2; in experiment [4], 114; in experiment [5], 9.2; in experiment [6], 135. This molecule also came in with a normalised SPOT signal, Boehringer light units (BLU); mean over the file's lines of this peptide in experiment [7] of 1240.

For the molecule DRKNRAPPQRPRFN [YER131W 91-104], the normalised SPOT signal, Boehringer light units (BLU); mean over the file's lines of this peptide was 134 in experiment [1]; 332 in experiment [2]; 24.1 in experiment [3]; 3740 in experiment [4]; 162 in experiment [5]; 2430 in experiment [6]. The molecule also had a normalised SPOT signal, Boehringer light units (BLU); mean over the file's lines of this peptide in experiment [7] of 4240.

As to DLDWRKIPFLPKEI [YLR427W 487-500], the normalised SPOT signal, Boehringer light units (BLU); mean over the file's lines of this peptide is 1070 in experiment [1]; 177 in experiment [2]; 26.3 in experiment [3]; 790 in experiment [4]; 154 in experiment [5]; 250 in experiment [6]. The molecule also returned a normalised SPOT signal, Boehringer light units (BLU); mean over the file's lines of this peptide in experiment [7] of 2880.

Take DNELKDEPEPPNLI [YGR093W 206-219]: the normalised SPOT signal, Boehringer light units (BLU); mean over the file's lines of this peptide in experiment [1] amounted to 32.3; in experiment [2] it was 25.3; in experiment [3] it was 26; in experiment [4], 0; in experiment [5] it was 16.3; in experiment [6] it was 179. The molecule further registered a normalised SPOT signal, Boehringer light units (BLU); mean over the file's lines of this peptide in experiment [7] of 17.2.

Consider DLQKKYEPSPPATH [YCR069W 34-47], for which the normalised SPOT signal, Boehringer light units (BLU); mean over the file's lines of this peptide was determined as 32.6 in experiment [1]; 40.7 in experiment [2]; 2.8 in experiment [3]; 0 in experiment [4]; 37.1 in experiment [5]; 225 in experiment [6]. Besides, the normalised SPOT signal, Boehringer light units (BLU); mean over the file's lines of this peptide in experiment [7] was determined as 114.

In the case of DRLSKIKPFLPQSI [YLR247C 271-284], the normalised SPOT signal, Boehringer light units (BLU); mean over the file's lines of this peptide in experiment [1] turned out to be 237; in experiment [2], 154; in experiment [3], 16.3; in experiment [4], 136; in experiment [5], 37.2; in experiment [6], 226. In experiment [7], this molecule had a normalised SPOT signal, Boehringer light units (BLU); mean over the file's lines of this peptide of 804.

Take DVNHRYPPMAPTTV [YPR008W 508-521]: the normalised SPOT signal, Boehringer light units (BLU); mean over the file's lines of this peptide in experiment [1] amounted to 39.1; in experiment [2], 52.3; in experiment [3], 34; in experiment [4], 21.3; in experiment [5] it was 15.7; in experiment [6], 176. This molecule also had a normalised SPOT signal, Boehringer light units (BLU); mean over the file's lines of this peptide in experiment [7] of 57.4.

For DLKKKYAPDPPITH [YNR028W 35-48], the normalised SPOT signal, Boehringer light units (BLU); mean over the file's lines of this peptide is 4.2 in experiment [1]; 27.7 in experiment [2]; 21 in experiment [3]; 16.5 in experiment [4]; 14.6 in experiment [5]; 186 in experiment [6]. Moreover, the normalised SPOT signal, Boehringer light units (BLU); mean over the file's lines of this peptide in experiment [7] was determined as 164.

For DYRPKSIPSPPNGI [YML034W 511-524], the normalised SPOT signal, Boehringer light units (BLU); mean over the file's lines of this peptide in experiment [1] is 23.7; in experiment [2], 19.7; in experiment [3], 6; in experiment [4], 38.5; in experiment [5], 36.2; in experiment [6], 154. The same molecule came in with a normalised SPOT signal, Boehringer light units (BLU); mean over the file's lines of this peptide in experiment [7] of 75.6.

Turning to DLSLRYAPNLPRVI [YLL048C 1385-1398], the normalised SPOT signal, Boehringer light units (BLU); mean over the file's lines of this peptide in experiment [1] amounted to 35; in experiment [2], 41.9; in experiment [3], 18.8; in experiment [4], 156; in experiment [5] it was 19.3; in experiment [6] it was 250. In experiment [7], the normalised SPOT signal, Boehringer light units (BLU); mean over the file's lines of this peptide was determined as 352.

As to DSYSRSRPTRPLGY [YNL165W 293-306], the normalised SPOT signal, Boehringer light units (BLU); mean over the file's lines of this peptide in experiment [1] amounted to 52.1; in experiment [2] it was 354; in experiment [3], 37.1; in experiment [4], 2260; in experiment [5] it was 177; in experiment [6] it was 261. Further, the normalised SPOT signal, Boehringer light units (BLU); mean over the file's lines of this peptide in experiment [7] was determined as 13600.

As for DTYARNNPDFPPQN [YDR164C 226-239], the normalised SPOT signal, Boehringer light units (BLU); mean over the file's lines of this peptide in experiment [1] worked out at 4.9; in experiment [2] it was 46.3; in experiment [3], 31.6; in experiment [4], 17.2; in experiment [5], 39.1; in experiment [6], 138. In experiment [7], this molecule displayed a normalised SPOT signal, Boehringer light units (BLU); mean over the file's lines of this peptide of 118.

As to DPSDKSLPQQPFHK [YJR006W 304-317], the normalised SPOT signal, Boehringer light units (BLU); mean over the file's lines of this peptide is 397 in experiment [1]; 55.1 in experiment [2]; 25.2 in experiment [3]; 39.2 in experiment [4]; 36.7 in experiment [5]; 192 in experiment [6]. Also, the normalised SPOT signal, Boehringer light units (BLU); mean over the file's lines of this peptide in experiment [7] is 0.
